Test results taken from patent US10806798B2, “Compound with effects of thrombolysis, free radical scavenging and thrombus-targeting” (Shanghai Lumosa Therapeutics Co., Ltd., priority 2012, dated 2020).
Bridge positions count the residues as written; N and C are the ends. Peptide text beside a SMILES is read from it. I, II: the chains in the order shown. * marks the point of attachment. X1 = CC1(C)N([O])C(c2ccc(OCC(=O)*)cc2)=[N+]([O-])C1(C)C

Legend:
[1] = test system: rats with stroke; assay: Treatment 24 h after the onset of stroke, Ie 5 μmol/kg initially then 2 μmol/kg (Zealonga scores); type: in vivo, SD rats; conditions: Ie 5 μmol/kg on day 1 (24 h after onset), 2 μmol/kg per day for 5 days
Procedure: (§1) The efficacy was represented by neural function scores, and a lower score indicates a higher efficacy. A 10% chloral hydrate solution was injected intraperitoneally into male SD rats at a dosage of 400 mg/kg body weight for anesthesia. A longitudinal open incision was made at the center of the neck, and the right common carotid artery trunk was dissected (about 3 cm in length). Carotid external artery branches were each dissected and ligated at the hyoid level, and the carotid internal artery was dissected at the swollen part of the neck. The open incisions in the carotid internal artery and the proximal end of the common carotid artery were occluded respectively with noninvasive arterial clips, and the distal end of the carotid external artery was ligated. A catheter containing 0.5 mL thrombus suspension in normal saline was inserted in the carotid external artery trunk. At the same time when the clip on the carotid internal artery was released, the 0.5 mL thrombus suspension in normal saline in the catheter slowly flew from the carotid external artery to its proximal end, and then was injected into the arteries in brain through the carotid internal artery. […] The rats were compared to themselves each day, and evaluated for the degree of damage in neural function by the Zealonga method. […]

[2] = FT-MS monitoring of metabolic products in brain tissues of rats treated with Ie; type: in vivo
Procedure: The entire rat brain was taken out and placed into a 50 mL centrifuge tube, into which 10 mL 0.9% NaCl was added, and homogenized to obtain a uniform suspension which was then centrifuged at 3000 rpm for 10 min. 5 mL supernatant was added into 10 mL methanol and evenly mixed by shaking, and centrifuged at 3000 rpm for 10 min. The supernatant was concentrated under reduced pressure until dry, followed by addition of 1 mL methanol, and again centrifuged at 12000 rpm for 10 min. The resultant supernatant was used for monitoring of the content of metabolic products in brain tissues in rats treated with compound Ie.
(MS conditions: loading: 10 μL; ionization mode: ES+; cone voltage: 30 V; mobile phase flow rate: 0.2 mL/min). According to the above data, the metabolic products M1 and M2 were assumed as the following compounds: […]

[3] = test system: rats with stroke; assay: Treatment 6 h after the onset of stroke induced by aged thrombus, Ie 2 μmol/kg (Zealonga scores); type: in vivo, SD rats; conditions: 2 μmol/kg Ie per day for 6 days from 6 h after onset
Procedure: as §1

[4] = test system: rats with stroke; assay: Treatment 6 h after the onset of stroke, Ie 5 μmol/kg initially then 2 μmol/kg (Zealonga scores); type: in vivo, SD rats; conditions: Ie 5 μmol/kg on day 1 (6 h after onset), 2 μmol/kg per day for 5 days
Procedure: as §1, with “indicates” for “indicates a”, “incision” for “incisions”

## CC(C)[C@H](NC(=O)[C@H](CC(=O)O)NC(=O)CNC(=O)[C@H](CCCNC(=N)N)NC(=O)[C@H](CCCCNC(=O)[C@H](CCCCN)NC(=O)[C@H](C)NC(=O)[C@@H]1CCCN1C(=O)[C@H](CCCNC(=N)N)NC(=O)CN)NC(=O)COc1ccc(C2=[N+]([O-])C(C)(C)C(C)(C)N2[O])cc1)C(=O)O [Ie, 1,3-dioxo-2-{4′-oxyacetyl-[N^ω-(Gly-Arg-Pro-Ala-Lys)-Lys-Arg-Gly-Asp-Val]phenyl}-4,4,5,5-tetramethylimidazoline] (I: H-GRPAK / II: X1-KRGDV-OH; amide I:C-II:1)
[1]
  rats dead among the 12 rats that received the treatment: three were dead
[2]; concluded from metabolic products found in rat brain
  crossing of the blood-brain barrier: did indeed cross the blood-brain barrier
[2]; rats treated with compound Ie, high-resolution FT-MS
  metabolic products in brain tissues: two metabolic products M1 and M2 in the brain
[3]
  rats dead among the 12 rats that received the treatment: six were dead
[4]
  rats dead among the 12 rats that received the treatment: two were dead
